Columns and labels:
[1] = target: Plasmodium falciparum P2 (PfP2), recombinant histidine-tagged full length protein (Plasmodium falciparum) (UniProt O00806); experiment: multi-angle light scattering; PfP2 250 to 400 µM, freshly prepared sample, HELEOS 8 Wyatt instrument, BSA as standard
[2] = target: Plasmodium falciparum P2 (PfP2), recombinant histidine-tagged full length protein (Plasmodium falciparum) (UniProt O00806); experiment: dynamic light scattering; PfP2 40 to 180 µM in Tris buffer, pH 7.5, 25°C, freshly prepared samples; size from a calibration of hydrodynamic diameter against molecular weight

stoichiometry N [1]: 7 to 8 | stoichiometry N [2]: 8 to 9
Substance: Plasmodium falciparum P2 (PfP2), recombinant histidine-tagged full length protein (from UniProt O00806 1-112) (natural protein)
